Source: patent EP2785382B1 (IBC Pharmaceuticals, Inc., dated 2019)
Blank lines part the entries; values can stand above or below the molecule they belong to.

Tests used:
IGF-1R on cells (human) [1] = target: IGF-1R on cells (human) (UniProt P08069); assay: 125I-IGF-1 binding to MCF-7L cells with antibody at 1000 ng/mL
IGF-1R on cells (human) [2] = target: IGF-1R on cells (human) (UniProt P08069); assay: 125I-IGF-1 binding to MCF-7L cells with antibody at 100 ng/mL
IGF-1R on cells (human) [3] = target: IGF-1R on cells (human) (UniProt P08069); assay: cell-based or functional assay
IGF-1R on cells (human) [4] = target: IGF-1R on cells (human) (UniProt P08069); assay: flow cytometry (FACScan), ME-180 cells
IGF-1R on cells (human) [5] = target: IGF-1R on cells (human) (UniProt P08069); assay: flow cytometry (FACScan), MCF-7 cells
IGF-1R on cells (human) [6] = target: IGF-1R on cells (human) (UniProt P08069); assay: flow cytometry (FACScan), DU 145 cells
[7] = target: T1, recombinant human IGF-1R (R&D Systems, Catalog # 391-GR) (human, UniProt P08069 31-935); assay: rhIGF-1R on polystyrene beads (not shown)
T1 construct: extracellular domain; immobilized on ELISA plates or polystyrene beads; also called rhIGF-1R; IGF-1R-coated beads

[8] = target: recombinant human IGF-1R (R&D Systems, Catalog # 391-GR) (human) (UniProt P08069); assay: ELISA on immobilized rhIGF-1R (not shown); cR1 from clones 709.2D2 and 710.2G2, same affinity
Chain of recombinant human IGF-1R (R&D Systems, Catalog # 391-GR) (human) (P08069 31-935): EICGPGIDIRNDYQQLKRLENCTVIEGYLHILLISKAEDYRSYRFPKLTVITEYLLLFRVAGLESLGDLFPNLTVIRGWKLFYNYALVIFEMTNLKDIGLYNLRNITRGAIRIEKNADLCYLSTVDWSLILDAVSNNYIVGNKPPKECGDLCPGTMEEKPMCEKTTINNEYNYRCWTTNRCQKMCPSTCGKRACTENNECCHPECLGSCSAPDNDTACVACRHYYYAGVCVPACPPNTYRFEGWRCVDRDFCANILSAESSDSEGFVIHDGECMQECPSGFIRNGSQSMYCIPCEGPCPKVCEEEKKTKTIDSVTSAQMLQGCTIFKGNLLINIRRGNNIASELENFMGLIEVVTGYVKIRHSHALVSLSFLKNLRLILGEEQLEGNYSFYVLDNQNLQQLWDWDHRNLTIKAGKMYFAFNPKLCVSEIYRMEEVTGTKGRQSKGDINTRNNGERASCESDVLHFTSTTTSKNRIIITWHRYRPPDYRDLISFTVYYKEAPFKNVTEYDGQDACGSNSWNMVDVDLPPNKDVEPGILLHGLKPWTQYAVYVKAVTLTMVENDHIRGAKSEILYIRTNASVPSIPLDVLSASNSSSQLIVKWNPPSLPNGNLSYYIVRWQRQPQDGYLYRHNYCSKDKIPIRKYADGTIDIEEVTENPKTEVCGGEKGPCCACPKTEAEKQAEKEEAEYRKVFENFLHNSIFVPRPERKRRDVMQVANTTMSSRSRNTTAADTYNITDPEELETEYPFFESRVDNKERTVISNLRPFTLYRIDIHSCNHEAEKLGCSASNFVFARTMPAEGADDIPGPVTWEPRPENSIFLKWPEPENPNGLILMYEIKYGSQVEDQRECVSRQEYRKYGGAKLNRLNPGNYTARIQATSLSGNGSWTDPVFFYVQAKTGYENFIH

Chain of IGF-1R on cells (human) (P08069 31-1367): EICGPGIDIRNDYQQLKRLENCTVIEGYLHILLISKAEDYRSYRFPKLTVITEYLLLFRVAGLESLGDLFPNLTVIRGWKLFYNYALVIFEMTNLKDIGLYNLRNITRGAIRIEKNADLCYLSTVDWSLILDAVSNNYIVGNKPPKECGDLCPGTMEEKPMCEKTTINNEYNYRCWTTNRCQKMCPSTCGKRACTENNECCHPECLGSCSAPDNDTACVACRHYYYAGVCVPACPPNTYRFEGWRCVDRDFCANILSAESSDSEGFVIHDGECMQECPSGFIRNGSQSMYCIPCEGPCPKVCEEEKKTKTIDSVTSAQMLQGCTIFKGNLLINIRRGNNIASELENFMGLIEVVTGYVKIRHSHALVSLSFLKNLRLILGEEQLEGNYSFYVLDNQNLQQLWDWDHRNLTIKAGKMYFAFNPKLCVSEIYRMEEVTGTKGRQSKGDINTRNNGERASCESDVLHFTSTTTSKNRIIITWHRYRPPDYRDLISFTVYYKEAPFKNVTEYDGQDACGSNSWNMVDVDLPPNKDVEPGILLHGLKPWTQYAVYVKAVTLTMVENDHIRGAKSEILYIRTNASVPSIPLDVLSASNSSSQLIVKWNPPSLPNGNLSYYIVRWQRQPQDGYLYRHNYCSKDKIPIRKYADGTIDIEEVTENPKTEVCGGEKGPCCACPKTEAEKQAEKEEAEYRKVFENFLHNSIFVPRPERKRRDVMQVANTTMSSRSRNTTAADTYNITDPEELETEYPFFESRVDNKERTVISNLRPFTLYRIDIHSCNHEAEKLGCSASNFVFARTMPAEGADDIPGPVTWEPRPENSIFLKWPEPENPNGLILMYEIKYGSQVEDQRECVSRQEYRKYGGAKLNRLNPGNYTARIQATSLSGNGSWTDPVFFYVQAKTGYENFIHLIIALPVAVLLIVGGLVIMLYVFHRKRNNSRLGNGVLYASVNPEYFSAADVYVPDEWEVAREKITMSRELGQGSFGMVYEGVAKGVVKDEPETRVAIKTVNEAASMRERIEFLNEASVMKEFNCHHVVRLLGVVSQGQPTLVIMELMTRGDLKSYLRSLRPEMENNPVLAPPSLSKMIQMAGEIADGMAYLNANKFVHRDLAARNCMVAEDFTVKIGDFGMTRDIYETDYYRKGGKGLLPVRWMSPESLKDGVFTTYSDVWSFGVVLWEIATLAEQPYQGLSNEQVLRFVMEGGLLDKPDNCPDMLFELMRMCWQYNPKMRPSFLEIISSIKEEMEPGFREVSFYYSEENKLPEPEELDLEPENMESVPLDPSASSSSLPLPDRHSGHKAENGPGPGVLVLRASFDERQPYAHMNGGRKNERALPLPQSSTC
T1 sequence (P08069 31-935): as the sequence (P08069 31-935) above

% Positive (IGF-1R on cells (human) [4]): 10.7%
MFI (IGF-1R on cells (human) [4]): 3.65
concentration giving complete receptor down-regulation (IGF-1R on cells (human) [3]): 10 nM
maximum growth inhibition, 786-O cells (8 nM), serum-free, IGF-1 100 ng/mL, MTS (IGF-1R on cells (human) [3]): 26%
maximum growth inhibition, ACHN cells (200 nM), serum-free, IGF-1 100 ng/mL, MTS (IGF-1R on cells (human) [3]): 3%
maximum growth inhibition, Caki-2 cells (8 nM), serum-free, IGF-1 100 ng/mL, MTS (IGF-1R on cells (human) [3]): 33%
% Positive (IGF-1R on cells (human) [5]): 89.2%
MFI (IGF-1R on cells (human) [5]): 9.93
% Positive (IGF-1R on cells (human) [6]): 30.4%
MFI (IGF-1R on cells (human) [6]): 5.33
binding result [7]: binds
B1: hR1 (antibody, IgG1, V domains shown)
VH: QVQLQESGGGVVQPGRSLRLSCSASGFTFSDYYMYWVRQAPGKGLEWVAYITNYGGSTYYPDTVKGRFTISRDNAKNTLFLQMDSLRPEDTGVYFCARQSNYDYDGWFAYWGQGTPVTVSS
VL: DIQLTQSPSSLSASVGDRVTITCKASQEVGTAVAWYQQKPGKAPKLLIYWASTRHTGVPSRFSGSGSGTDFTFTISSLQPEDIATYFCQQYSNYPLTFGQGTKVEIKR
notes: also called humanized anti-IGF-1R; hR1 IgG

concentration substantially reducing the level of IGF-1R in MCF-7, DU-145 and LnCap (IGF-1R on cells (human) [3]): 0.1 nM
B3: 1R-E1 (bispecific antibody, part only; not given: hRS7 Fab-DDD2 module, not shown: a dimerising Fc or GST)
heavy (part 1 of 2): QVQLQESGGGVVQPGRSLRLSCSASGFTFSDYYMYWVRQAPGKGLEWVAYITNYGGSTYYPDTVKGRFTISRDNAKNTLFLQMDSLRPEDTGVYFCARQSNYDYDGWFAYWGQGTPVTVSS
heavy (part 2 of 2): GSGGGGSGGCGQIEYLAKQIVDNAIQQAGC
light: DIQLTQSPSSLSASVGDRVTITCKASQEVGTAVAWYQQKPGKAPKLLIYWASTRHTGVPSRFSGSGSGTDFTFTISSLQPEDIATYFCQQYSNYPLTFGQGTKVEIKR

Kd [8]: 0.1 nM
B4: cR1 (antibody, from another filing, V domains shown)
VH: EVKLVESGGGLVQPGGSLKLSCATSGFTFSDYYMYWVRQTPEKRLEWVAYITNYGGSTYYPDTVKGRFTISRDNAKNTLYLQMSRLRSEDTAMYFCARQSNYDYDGWFAYWGQGTTVTVSS
VL: DIVMTQSHKFMSTSVGDRVSITCKASQEVGTAVAWYQQKPGQSPKLLIYWASTRHTGVPDRFTGSGSGTDFTLTISNVQSEDLADYFCQQYSNYPLTFGAGAKLELKR

Further lines, the molecule ahead of its results:

Molecule: MAB391 (antibody)
% binding of 125I-IGF-1 to MCF-7L (IGF-1R on cells (human) [1]): 38%
% binding of 125I-IGF-1 to MCF-7L (IGF-1R on cells (human) [2]): 54%
maximum growth inhibition, 786-O cells (8 nM), serum-free, IGF-1 100 ng/mL, MTS (IGF-1R on cells (human) [3]): 34%
maximum growth inhibition, ACHN cells (200 nM), serum-free, IGF-1 100 ng/mL, MTS (IGF-1R on cells (human) [3]): 48%
maximum growth inhibition, Caki-2 cells (8 nM), serum-free, IGF-1 100 ng/mL, MTS (IGF-1R on cells (human) [3]): 50%

B2: Hex-hR1 (antibody, V domains shown, not shown: a dimerising Fc or GST; small tags and cut ends)
VH: QVQLQESGGGVVQPGRSLRLSCSASGFTFSDYYMYWVRQAPGKGLEWVAYITNYGGSTYYPDTVKGRFTISRDNAKNTLFLQMDSLRPEDTGVYFCARQSNYDYDGWFAYWGQGTPVTVSS
VL: DIQLTQSPSSLSASVGDRVTITCKASQEVGTAVAWYQQKPGKAPKLLIYWASTRHTGVPSRFSGSGSGTDFTFTISSLQPEDIATYFCQQYSNYPLTFGQGTKVEIK
modifications: DNL complex: one IgG-AD2 and four Fab-DDD2, disulfide-locked through AD2 and DDD2. All six Fabs carry the same hR1 VH/VK [CUT]
maximum growth inhibition, 786-O cells (8 nM), serum-free, IGF-1 100 ng/mL, MTS (IGF-1R on cells (human) [3]): 35%
maximum growth inhibition, ACHN cells (200 nM), serum-free, IGF-1 100 ng/mL, MTS (IGF-1R on cells (human) [3]): 48%
maximum growth inhibition, Caki-2 cells (8 nM), serum-free, IGF-1 100 ng/mL, MTS (IGF-1R on cells (human) [3]): 43%
